Assay results reported in patent publication US11421026B2, “Antibodies that bind human cannabinoid 1 (CB1) receptor” (BIRD ROCK BIO, Inc., priority 2015, dated 2022).

Legend:
[1] = test system: TRex CHO parental cells (no CB1); assay: Flow cytometry (FACS) binding to parental cells
Experimental: TRex CHO parental cells, TRex CHO A56 over-expressed CB1 (CB1 T210A/fusion partner), and Native human CB1 TRex CHO A156 were harvested from flasks. 100 μl of 1×10^6 cells/ml of cells were incubated with primary antibody IgGs. Secondary Antibody PE conjugated anti-human and anti-mouse was diluted in 1:200 folds. Anti-Human Fab FITC was diluted in 1:32 folds. Cells were washed with 200 μl of FACS buffer twice and transferred to BD 5 ml Falcon tube and analyzed by flow cytometry. Binding of purified IgG was initially tested at concentrations of 30 nM and 300 nM.
(§1) To further assess TRex CHO parental cells, TRex CHO A56 overexpressed CB1, Native human CB1 TRex CHO A156, 5HT2B, Mouse CB1 and human CB2 were used to examine the specificity of IgG binding. 100 μl of 1×10^6 cells/ml of cells were incubated with primary antibody IgGs in 3-fold serial dilutions starting from 1 μM to 0.5 nM for 30 minutes on ice. After being washed with 200 μl of FACS buffer twice, cells were incubated with secondary antibody for 30 minutes on ice. Cells were washed with 200 μl of FACS buffer twice and transferred to BD Falcon 5 ml tube and analyzed by FACS.
(§2) The binding affinity, cross-reactivity and specificity of humanized P1C4 antibodies were determined by flow cytometry with TRex CHO parental cells, TRex CHO A56 overexpressed CB1 cells (T210A/fusion partner), native human CB1 TRex CHO A156 cells, Trex parental (no CB1) cells, mouse CB1 cells, and human CB2 stable cells. […] After being washed with 200 μl of FACS buffer twice, cells were incubated with PE conjugated anti-human secondary antibody (Southern Biotech) for 30 minutes on ice. Cells were washed with 200 μl of FACS buffer twice and transferred to BD Falcon 5 ml tube and analyzed by flow cytometry (BD FACScalibur).
The binding affinity of PA13R3-P1C4 humanized variants was determined by flow cytometry using TRex CHO cells stably transfected with the CB1. TRex CHO parental cells, and TRex-CHO cells stably transfected with tetracycline inducible human CB1, human CB2 or mouse CB1 expression constructs were harvested. To determine binding of test antibodies, one hundred microliters of 1×10^6 cells/mL of cells were incubated with test antibodies with a range of concentrations between 1 μM and 1.3 nM for 30 minutes on ice. Cells were then centrifuged at 4° C. at 1600 rpm for 3 minutes; supernatant was aspirated and cells were washed with 200 μL FACS buffer. The washing procedure was repeated twice. […] Cells were washed with 200 μL FACS buffer twice and analyzed by flow cytometry (Guava). […] The mean dissociation constant (KD) of PA13R3-P1C4 humanized variants was determined by averaging at least 4 different experiments using at least 2 different batches of protein (FIG. 20A-D and Table 16).

[2] = biological target: T1, TRex CHO A156 Native human CB1 cells (Homo sapiens, UniProt P21554); assay: Competition assay by FACS; format: binding; conditions: excess competitor; staining IgG at EC80 and EC50
T1 construct: pcDNA4/TO native full length human CB1 receptor construct was transfected into tetracycline inducible system Trex-CHO cells; expressed in transfected cells
T1 sequence (P21554 whole entry): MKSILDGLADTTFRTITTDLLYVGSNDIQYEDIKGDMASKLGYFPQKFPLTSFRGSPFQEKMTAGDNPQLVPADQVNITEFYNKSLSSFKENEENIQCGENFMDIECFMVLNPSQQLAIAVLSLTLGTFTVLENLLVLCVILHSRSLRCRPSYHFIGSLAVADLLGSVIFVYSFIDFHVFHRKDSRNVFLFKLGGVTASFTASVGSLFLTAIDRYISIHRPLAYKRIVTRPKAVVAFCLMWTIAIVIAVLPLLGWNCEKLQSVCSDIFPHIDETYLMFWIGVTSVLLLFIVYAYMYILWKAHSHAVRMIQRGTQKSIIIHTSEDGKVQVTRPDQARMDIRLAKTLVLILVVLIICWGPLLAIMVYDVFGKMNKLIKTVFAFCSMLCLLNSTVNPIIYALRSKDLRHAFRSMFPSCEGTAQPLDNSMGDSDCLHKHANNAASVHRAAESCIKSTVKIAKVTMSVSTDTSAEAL
Experimental: TRex CHO A156 Native human CB1 cells were used to test whether 36E12B6C2 and P1C4 bind to similar epitopes. Concentrations at EC80 and EC50 of P1C4 and 36E12B6C2 were used for staining. Excess of PA13R3-P1C4 IgG, Fab and 36E12B6C2 were used for competition. 100 μl of 1×10^6 cells/ml of A156 cells were incubated with competitor IgGs for 30 minutes on ice and then staining IgGs were added into the mixture with 30 minutes incubation on ice. After being washed with 200 μl of FACS buffer twice, cells were incubated with secondary antibody for 30 minutes on ice. PE conjugated anti-human and anti-mouse was diluted in 1:200 folds. Cells were washed with 200 μl of FACS buffer twice and transferred to BD Falcon 5 ml tube and analyzed by FACS.

[3] = biological target: T2, Mouse CB1 (TRex CHO cells) (Mus musculus, UniProt P47746); assay: Flow cytometry cross-reactivity to mouse CB1; format: binding
T2 construct: expressed in transfected cells
T2 sequence (P47746 whole entry): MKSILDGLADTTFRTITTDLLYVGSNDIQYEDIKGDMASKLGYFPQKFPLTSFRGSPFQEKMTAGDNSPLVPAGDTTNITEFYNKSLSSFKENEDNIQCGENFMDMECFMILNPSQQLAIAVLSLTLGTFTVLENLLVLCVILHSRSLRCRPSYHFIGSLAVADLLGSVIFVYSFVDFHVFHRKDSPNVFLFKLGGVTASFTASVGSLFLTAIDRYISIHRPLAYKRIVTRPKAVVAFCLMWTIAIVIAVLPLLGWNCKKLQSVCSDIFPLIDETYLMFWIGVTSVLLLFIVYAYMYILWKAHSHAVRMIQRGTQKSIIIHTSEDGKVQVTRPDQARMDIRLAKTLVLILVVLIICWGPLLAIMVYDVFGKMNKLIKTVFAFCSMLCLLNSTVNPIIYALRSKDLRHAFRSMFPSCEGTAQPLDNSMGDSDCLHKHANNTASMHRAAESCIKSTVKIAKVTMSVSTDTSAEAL
Experimental: as §1
(§3) Santa Cruz anti-CB1 rabbit polyclonal antibody and secondary antibody FITC conjugated anti-rabbit were used to detect the expression of mouse CB1. R&D mouse monoclonal anti-CB2 and human IgG P2C2 were used to confirm the expression of CB2 and 5HT2B respectively. Both anti-mouse and anti-human secondary antibodies were PE-conjugated.
as §2
Binding selectivity and cross-reactivity of PA13R3-P1C4 and its humanized variants was also characterized by flow cytometry using TRex CHO cells stably transfected with the GPCRs of interest. Specifically, binding selectivity for CB1 over CB2 was determined. Cross reactivity to mouse CB1 was also determined. For detecting expression of mouse CB1, 100 μL of 1×10^6 cells/mL of cells were incubated with anti-CB1 rabbit polyclonal antibody (Santa Cruz) at 1 μg/100 μL on ice for 30 min. Mouse monoclonal anti-CB2 antibody from R&D Systems was used to confirm the expression of CB2. 100 μL of 1×10^6 cells/mL of cells were incubated with anti-CB2 antibody at 0.5 μg/100 μL on ice for 30 minutes. After incubation, cells were then centrifuged at 4° C. at 1600 rpm for 3 minutes; supernatant was aspirated and cells were washed with 200 μL FACS buffer. The procedure was repeated twice. […] Cells were washed with 200 μL FACS buffer twice and analyzed by flow cytometry (Guava). Binding of purified IgG full concentration curves ranging from 1 μM to 1.3 nM was determined. […]

5HT2B expressing cells = biological target: T3, 5HT2B expressing cells (Homo sapiens, UniProt P41595); assay: Flow cytometry selectivity versus 5HT2B; format: binding
T3 construct: expressed in transfected cells
T3 sequence (P41595 whole entry): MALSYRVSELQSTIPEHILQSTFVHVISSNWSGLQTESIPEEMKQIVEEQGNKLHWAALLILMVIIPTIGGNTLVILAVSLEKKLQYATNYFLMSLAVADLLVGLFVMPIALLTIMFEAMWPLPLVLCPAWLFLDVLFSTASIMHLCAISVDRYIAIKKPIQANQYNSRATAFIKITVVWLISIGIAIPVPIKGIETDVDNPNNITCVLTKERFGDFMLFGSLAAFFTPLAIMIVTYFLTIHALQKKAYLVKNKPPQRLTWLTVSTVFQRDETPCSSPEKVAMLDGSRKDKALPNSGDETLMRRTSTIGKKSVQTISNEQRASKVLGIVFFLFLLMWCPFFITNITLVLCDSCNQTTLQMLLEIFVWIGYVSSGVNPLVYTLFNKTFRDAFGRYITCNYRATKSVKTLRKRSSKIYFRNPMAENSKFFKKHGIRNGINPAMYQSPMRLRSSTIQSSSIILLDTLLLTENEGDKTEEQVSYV
Experimental: as §1, §3
For selected binders, full binding curves were generated on CB1 receptor by testing a range of concentrations. Three-fold serial dilutions from 1 μM to […] were prepared. Selectivity was determined by measuring binding to cells expressing 5HT2B or CB2, relative to binding to A156 (native human CB1 receptor expressing) or A56 (overexpressed—CB1 receptor with the T210A modification and ICL3 replacement with fusion partner) by flow cytometry. As shown in FIG. 2C and FIG. 2D, the expression of CB2 and 5HT2B was confirmed using mouse monoclonal anti-CB2 and P2C2 human IgG to confirm CB2 and 5HT2B expression, respectively. PE-conjugated anti-mouse (for detection of anti-CB2) and PE conjugated anti-human antibodies were used to detect CB2 and 5HT2B, respectively.

Molecule	binding to parental TRex CHO (in words) [1]	Kd TRexCHO parental ([1]; Table 10)	competition for CB1 binding [2]	cross-activity with Mouse CB1 [3]	Kd TRexCHO Mouse CB1 ([3]; Table 10)	cross-activity with 5ht2b (5HT2B expressing cells)
PA13R3-P1C4: phage-derived chimeric anti-CB1 IgG; HC variable SEQ ID NO: 2, LC variable SEQ ID NO: 6 (antibody, V domains shown, PA13R3-P1C4 Heavy chain variable region; PA13R3-P1C4 Light chain variable region) VH: EVQLQQSGAELVRPGVSVKISCKASGYEFSYYWMNWVKQRPGQGLEWIGQIYPGDGETKYNGKFKGKATLTADKSSNTAYMQLSSLTSEDSAVYFCARSHGNYLPYWGQGTLVTVSA VL: DIVLTQSPAIMSASLGERVTMTCTASSSVSSSYLHWYQQKPGSSPKLWIYSTSNLASGVPARFSGSGSGTSYSLTISSMEAEDAATYYCHQYHRSPPTFGAGTKLELK	not parental TRex CHO	No binding	competed with 36E12B6C2	do not have cross-activity	No binding	do not have cross-activity
PA13R3-P1C4 Fab: Fab fragment of chimeric PA13R3-P1C4 (antibody, V domains shown) VH: EVQLQQSGAELVRPGVSVKISCKASGYEFSYYWMNWVKQRPGQGLEWIGQIYPGDGETKYNGKFKGKATLTADKSSNTAYMQLSSLTSEDSAVYFCARSHGNYLPYWGQGTLVTVSA VL: DIVLTQSPAIMSASLGERVTMTCTASSSVSSSYLHWYQQKPGSSPKLWIYSTSNLASGVPARFSGSGSGTSYSLTISSMEAEDAATYYCHQYHRSPPTFGAGTKLELK	not parental TRex CHO		competed with 36E12B6C2	do not have cross-activity		do not have cross-activity
36E12B6C2: hybridoma-derived anti-CB1 mAb; HC variable SEQ ID NO: 18, LC variable SEQ ID NO: 22 (antibody, listed as Mus sp., V domains shown) VH: QVQLQQSGAELVRPGSSVKISCKASGYEFSYYWMNWVKQRPGQGLQWIGQIYPGDGDTNYNGKFKGKATLTADKSSSTAYMHLTSLTSEDSAVYFCARSGGNPFAFWGQGTLVTVSA VL: DIQMTQTSSSLSASLGDRVTFSCRASQDISNYLNWYQQKPDGTVKLLIYYTSRLHSGVTSRFRGSGSGTDYSLTISNLEQEDVATYFCQQGHTLPWSFGGGTKLEIK	not parental TRex CHO		could also compete with PA13R3-P1C4	do not have cross-activity		do not have cross-activity
